Assay results published in US20110177070A1 (EMERGENT PRODUCT DEVELOPMENT SEATLLE, published 2011).

T1: recombinant human sIL-6R (human, UniProt P08887 20-358, limits assumed)
T1 construct: Bought soluble receptor; also called human soluble IL6R; IL6R alone
T1 sequence (looked up): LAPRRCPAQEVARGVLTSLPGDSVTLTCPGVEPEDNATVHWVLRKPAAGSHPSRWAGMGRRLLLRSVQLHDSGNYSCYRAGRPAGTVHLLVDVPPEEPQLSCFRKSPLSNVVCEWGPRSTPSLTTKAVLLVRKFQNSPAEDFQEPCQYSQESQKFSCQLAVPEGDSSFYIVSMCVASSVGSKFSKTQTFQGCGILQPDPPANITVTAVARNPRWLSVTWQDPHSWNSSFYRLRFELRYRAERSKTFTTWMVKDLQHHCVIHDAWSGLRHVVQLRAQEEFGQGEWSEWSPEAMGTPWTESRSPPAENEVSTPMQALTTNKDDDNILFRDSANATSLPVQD

B1: Xceptor fusion protein TRU(XT6)-1058 (Fc fusion)
chain: LPAQVAFTPYAPEPGSTCRLREYYDQTAQMCCSKCSPGQHAKVFCTKTSDTVCDSCEDSTYTQLWNWVPECLSCGSRCSSDQVETQACTREQNRICTCRPGWYCALSKQEGCRLCAPLRKCRPGFGVARPGTETSDVVCKPCAPGTFSNTTSSTDICRPHQICNVVAIPGNASMDAVCTSTSPTRSMAPGAVHLPQPVSTRSQHTQPTPEPSTAPSTSFLLPMGPSPPAEGSTGDTGEPKSSDKTHTCPPCPAPEAAGAPSVFLFPPKPKDTLMISRTPEVTCVVVDVSHEDPEVKFNWYVDGVEVHNAKTKPREEQYNSTYRVVSVLTVLHQDWLNGKAYACAVSNKALPAPIEKTISKAKGQPREPQVYTLPPSRDELTKNQVSLTCLVKGFYPSDIAVEWESNGQPENNYKTTPPVLDSDGSFFLYSKLTVDKSRWQQGNVFSCSVMHEALHNHYTQKSLSLSPGQRHNNSSLNTRTQKARHSPNSEVQLLESGGGLVQPGGSLRLSCAASGFTFSMYTMHWVRQAPGKGLEWVSWISPSGGWTKYADSVKGRFTISRDNSKNTLYLQMNSLRAEDTAVYYCAVSPWGGPFDYWGQGTLVTVSSGGGGSGGGGSGGGGSQDIQMTQSPSTLSASVGDRVTITCRASQSISSWLAWYQQKPGKAPKLLIYKASTLESGVPSRFSAGGSGTEFTLTISSLQPDDFGTYYCQQYNSYSLTFGGGTKVEII
B2: Xceptor fusion protein TRU(XT6)-1019 (Fc fusion)
chain: LPAQVAFTPYAPEPGSTCRLREYYDQTAQMCCSKCSPGQHAKVFCTKTSDTVCDSCEDSTYTQLWNWVPECLSCGSRCSSDQVETQACTREQNRICTCRPGWYCALSKQEGCRLCAPLRKCRPGFGVARPGTETSDVVCKPCAPGTFSNTTSSTDICRPHQICNVVAIPGNASMDAVCTSTSPTRSMAPGAVHLPQPVSTRSQHTQPTPEPSTAPSTSFLLPMGPSPPAEGSTGDTGEPKSSDKTHTCPPCPAPEAAGAPSVFLFPPKPKDTLMISRTPEVTCVVVDVSHEDPEVKFNWYVDGVEVHNAKTKPREEQYNSTYRVVSVLTVLHQDWLNGKAYACAVSNKALPAPIEKTISKAKGQPREPQVYTLPPSRDELTKNQVSLTCLVKGFYPSDIAVEWESNGQPENNYKTTPPVLDSDGSFFLYSKLTVDKSRWQQGNVFSCSVMHEALHNHYTQKSLSLSPGQRHNNSSLNTRTQKARHSPNSEVQLLESGGGLVQPGGSLRLSCAASGFTFSWYLMHWVRQAPGKGLEWVSGIWPSGGHTLYADSVKGRFTISRDNSKNTLYLQMNSLRAEDTAVYYCAREPLLWFGELSYNWFDPWGQGTLVTVSSGGGGSGGGGSGGGGSQDIQMTQSPSSVSASVGDRVTITCRASQGISSWLAWYQQKPGKAPKLLIYAASSLQSGVPSRFSGSGSGTDFTLTISSLQPEDFATYYCQQANSFPLTFGGGTKVEIK
notes: also called Xceptor TNFRSF1B::anti-HIL6
B3: Xceptor fusion protein TRU(XT6)-1002 (Fc fusion)
chain: LPAQVAFTPYAPEPGSTCRLREYYDQTAQMCCSKCSPGQHAKVFCTKTSDTVCDSCEDSTYTQLWNWVPECLSCGSRCSSDQVETQACTREQNRICTCRPGWYCALSKQEGCRLCAPLRKCRPGFGVARPGTETSDVVCKPCAPGTFSNTTSSTDICRPHQICNVVAIPGNASMDAVCTSTSPTRSMAPGAVHLPQPVSTRSQHTQPTPEPSTAPSTSFLLPMGPSPPAEGSTGDTGEPKSSDKTHTCPPCPAPEAAGAPSVFLFPPKPKDTLMISRTPEVTCVVVDVSHEDPEVKFNWYVDGVEVHNAKTKPREEQYNSTYRVVSVLTVLHQDWLNGKAYACAVSNKALPAPIEKTISKAKGQPREPQVYTLPPSRDELTKNQVSLTCLVKGFYPSDIAVEWESNGQPENNYKTTPPVLDSDGSFFLYSKLTVDKSRWQQGNVFSCSVMHEALHNHYTQKSLSLSPGQRHNNSSLNTRTQKARHSPNSEVQLLESGGGLVQPGGSLRLSCAASGFTFSFYQMHWVRQAPGKGLEWVSGIYPSGGYTKYADSVKGRFTISRDNSKNTLYLQMNSLRAEDTAVYYCARDLGYGSSWYYFDYWGQGTLVTVSSGGGGSGGGGSGGGGSQSALTQPASVSGSPGQSITISCSGTDSDVGGYNHVSWYQQHPGKAPKLIIYDVDHRPSGISNRFSGSKSGNTASLTISGLQAEDEADYYCSSYRSGSTYVFGTGTKVTVL
notes: as for B2
B4: Xceptor fusion protein TRU(X6T)-1019 (Fc fusion)
chain: EVQLLESGGGLVQPGGSLRLSCAASGFTFSWYLMHWVRQAPGKGLEWVSGIWPSGGHTLYADSVKGRFTISRDNSKNTLYLQMNSLRAEDTAVYYCAREPLLWFGELSYNWFDPWGQGTLVTVSSGGGGSGGGGSGGGGSQDIQMTQSPSSVSASVGDRVTITCRASQGISSWLAWYQQKPGKAPKLLIYAASSLQSGVPSRFSGSGSGTDFTLTISSLQPEDFATYYCQQANSFPLTFGGGTKVEIKTGEPKSSDKTHTCPPCPAPEAAGAPSVFLFPPKPKDTLMISRTPEVTCVVVDVSHEDPEVKFNWYVDGVEVHNAKTKPREEQYNSTYRVVSVLTVLHQDWLNGKAYACAVSNKALPAPIEKTISKAKGQPREPQVYTLPPSRDELTKNQVSLTCLVKGFYPSDIAVEWESNGQPENNYKTTPPVLDSDGSFFLYSKLTVDKSRWQQGNVFSCSVMHEALHNHYTQKSLSLSPGQRHNNSSLNTRTQKARHSPNSLPAQVAFTPYAPEPGSTCRLREYYDQTAQMCCSKCSPGQHAKVFCTKTSDTVCDSCEDSTYTQLWNWVPECLSCGSRCSSDQVETQACTREQNRICTCRPGWYCALSKQEGCRLCAPLRKCRPGFGVARPGTETSDVVCKPCAPGTFSNTTSSTDICRPHQICNVVAIPGNASMDAVCTSTSPTRSMAPGAVHLPQPVSTRSQHTQPTPEPSTAPSTSFLLPMGPSPPAEGSTGD

Target: T1, recombinant human sIL-6R
Assay: sandwich ELISA: Xceptor captured on anti-human IgG-Fc, sIL-6R, anti-human IL-6R-biotin
Method: Added to each well of a 96-well plate was 100 μl goat anti-human IgG-Fc (ICN Pharmaceuticals, Costa Mesa, Calif.) from a 2 μg/ml solution in PBS, pH 7.2-7.4, The plates were covered, and incubated overnight at 4° C. After washing four times with PBS-T, 250 μl Blocking buffer (PBS-T with 3% BSA or 10% normal goat serum) was added to each well, the plate was covered, and incubated at room temperature for 2 hours (or at 4° C. overnight). After washing the plate three times with PBS-T, added in duplicate wells to the anti-human IgG-Fc coated plate was 100 μl/well Xceptor TNFRSF1B::anti-HIL6 samples, positive control anti-human IL-6R(R&D Systems, Minneapolis, Minn.) and negative controls human IgG or human gp130-Fc chimera (R&D Systems), each serially diluted three-fold in Working buffer starting at 300 ng/ml, the plate was covered, and incubated at room temperature for about 1 to 2 hours. After washing the plate five times with PBS-T, added in duplicate wells was 100 μl/well recombinant human sIL-6R(R&D Systems) from a 75 pM solution in Working buffer, the plate was covered, and incubated at room temperature for about 1 to 2 hours. After washing the plate five times with PBS-T, added 100 μl/well anti-human IL-6R-biotin (R&D Systems) from a 100 ng/ml solution in Working buffer, the plate was covered, and incubated at room temperature for about 1 to 2 hours. After washing the plate five times with PBS-T, 100 μl per well horse radish peroxidase-conjugated streptavidin (Zymed, San Francisco, Calif.) diluted 1:4,000 in Working buffer was added, the plate was covered, and incubated at room temperature for 30 minutes. After washing the plate six times with PBS-T, 100 μl per well 3,3,5,5-tetramentylbenzidine (TMB) substrate solution (Pierce, Rockford, Ill.) was added for about 3 to 5 minutes and then the reaction was stopped with 50 μl Stop buffer (1N H₂SO₄) per well. The absorbance of each well was read at 450 nm.

Binder	binding result
B1	no binding (tested: Xceptor from 300 ng/ml; sIL-6R 75 pM)
B2	no binding (tested: Xceptor from 300 ng/ml; sIL-6R 75 pM)
B3	no binding (tested: Xceptor from 300 ng/ml; sIL-6R 75 pM)
B4	no binding (tested: Xceptor from 300 ng/ml; sIL-6R 75 pM)

Target: T2, recombinant human TNF-α (human, UniProt P01375 77-233)
T2 construct: also called rhTNF-α
T2 sequence (P01375 77-233 limits assumed): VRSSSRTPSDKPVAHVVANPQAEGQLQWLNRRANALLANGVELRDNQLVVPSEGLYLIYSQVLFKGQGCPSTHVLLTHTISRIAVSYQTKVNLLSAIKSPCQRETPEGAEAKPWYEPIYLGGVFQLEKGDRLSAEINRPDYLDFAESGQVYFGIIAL
Assay: sandwich ELISA: Xceptor captured on anti-human IgG-Fc, 2 ng/ml TNF-α, anti-human TNF-α-biotin
Method: Added to each well of a 96-well plate was 100 μl goat anti-human IgG-Fc (ICN Pharmaceuticals, Costa Mesa, Calif.) from a 2 μg/ml solution in PBS, pH 7.2-7.4. The plate was covered, and incubated overnight at 4° C. After washing four times with PBS-T, 250 μl Blocking buffer was added to each well, the plate was covered, and incubated at room temperature for 2 hours (or at 4° C. overnight). After washing the plate three times with PBS-T, added in duplicate wells to the anti-human IgG-Fc coated plate was 100 μl/well Xceptor TNFRSF1B::anti-HIL6 samples, positive controls Enbrel® (etanercept) and recombinant human TNFR2 (TNFRSF1B)-Fc chimera (R&D Systems, Minneapolis, Minn.), and negative controls human IgG or human gp130-Fc chimera (R&D Systems), each serially diluted three-fold in Working buffer starting at 300 ng/ml, the plate was covered, and incubated at room temperature for about 1 to 2 hours. After washing the plate five times with PBS-T, added in duplicate wells was 100 μl/well recombinant human TNF-α (R&D Systems) from a 2 ng/ml solution in Working buffer, the plate was covered, and incubated at room temperature for about 1 to 2 hours. After washing the plate five times with PBS-T, added 100 μl/well anti-human TNF-α-biotin (R&D Systems) from a 200 ng/ml solution in Working buffer, the plate was covered, and incubated at room temperature for about 1 to 2 hours. After washing the plate five times with PBS-T, 100 μl per well horse radish peroxidase-conjugated streptavidin (Jackson ImmunoResearch, West Grove, Pa.) diluted 1:1,000 in Working buffer was added, the plate was covered, and incubated at room temperature for 30 minutes. After washing the plate six times with PBS-T, 100 μl per well 3,3,5,5-tetramentylbenzidine (TMB) substrate solution (Pierce, Rockford, Ill.) was added for about 3 to 5 minutes and then the reaction was stopped with 50 μl Stop buffer (1N H₂SO₄) per well. The absorbance of each well was read at 450 nm.

binding result	Binder
binds	B1
binds	B2
binds	B3
binds	B4
